# Laboratory results: paper PMC9273970, “Mambalgin-2 Inhibits Lung Adenocarcinoma Growth and Migration by Selective Interaction With ASIC1/α-ENaC/γ-ENaC Heterotrimer” (Frontiers in Oncology, 2022)
# B1: recombinant mambalgin-2 from Dendroaspis polylepis (natural protein)
# chain: LKCFQHGKVVTCHRDMKFCYHNTGMPFRNLKLILQGCSSSCSETENNKCCSTDRCNK
# Legend:
# [1] = biological target: ASIC1a subunit (acid-sensing ion channel 1a) (human (endogenous in A549))
# [2] = biological target: human heteromeric ASIC1a/α-ENAC/γ-ENAC channel (human, UniProt P78348 1-528; P37088 1-669; P51170 1-649); assay: cell-based or functional assay
# Chain of human heteromeric ASIC1a/α-ENAC/γ-ENAC channel (P78348 whole entry, chain 1 of 3): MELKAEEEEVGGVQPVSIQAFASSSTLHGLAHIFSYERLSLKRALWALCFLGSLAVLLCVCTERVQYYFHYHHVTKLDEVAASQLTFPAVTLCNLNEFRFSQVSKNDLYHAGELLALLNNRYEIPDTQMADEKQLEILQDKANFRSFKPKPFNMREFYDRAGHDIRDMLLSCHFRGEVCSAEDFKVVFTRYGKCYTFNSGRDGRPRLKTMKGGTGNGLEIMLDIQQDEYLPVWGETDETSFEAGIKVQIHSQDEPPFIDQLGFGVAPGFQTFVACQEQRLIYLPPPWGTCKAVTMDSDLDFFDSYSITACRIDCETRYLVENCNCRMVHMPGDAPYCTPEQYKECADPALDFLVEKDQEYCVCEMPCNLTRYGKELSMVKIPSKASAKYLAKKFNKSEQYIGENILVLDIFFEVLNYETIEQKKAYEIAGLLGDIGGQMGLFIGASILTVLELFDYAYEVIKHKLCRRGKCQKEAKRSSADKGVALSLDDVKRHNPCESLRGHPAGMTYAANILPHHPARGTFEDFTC
# Chain of human heteromeric ASIC1a/α-ENAC/γ-ENAC channel (P37088 whole entry, chain 2 of 3): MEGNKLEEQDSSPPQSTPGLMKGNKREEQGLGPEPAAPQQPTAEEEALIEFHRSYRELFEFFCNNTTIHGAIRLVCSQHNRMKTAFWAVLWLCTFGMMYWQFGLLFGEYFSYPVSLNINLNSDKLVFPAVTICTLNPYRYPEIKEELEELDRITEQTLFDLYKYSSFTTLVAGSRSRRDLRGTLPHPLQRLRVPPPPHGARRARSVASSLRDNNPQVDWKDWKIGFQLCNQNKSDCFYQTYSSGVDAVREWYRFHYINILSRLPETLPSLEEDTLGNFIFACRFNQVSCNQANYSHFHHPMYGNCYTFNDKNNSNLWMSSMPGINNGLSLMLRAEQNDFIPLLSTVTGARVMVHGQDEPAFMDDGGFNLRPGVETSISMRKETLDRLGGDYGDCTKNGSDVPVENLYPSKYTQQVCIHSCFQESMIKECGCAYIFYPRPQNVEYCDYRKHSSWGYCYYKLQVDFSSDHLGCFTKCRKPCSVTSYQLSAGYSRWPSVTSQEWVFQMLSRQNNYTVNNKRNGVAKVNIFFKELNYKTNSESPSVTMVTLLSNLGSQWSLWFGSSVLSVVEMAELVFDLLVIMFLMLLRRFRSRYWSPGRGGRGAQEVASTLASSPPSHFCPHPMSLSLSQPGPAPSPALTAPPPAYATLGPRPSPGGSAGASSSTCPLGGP
# Chain of human heteromeric ASIC1a/α-ENAC/γ-ENAC channel (P51170 whole entry, chain 3 of 3): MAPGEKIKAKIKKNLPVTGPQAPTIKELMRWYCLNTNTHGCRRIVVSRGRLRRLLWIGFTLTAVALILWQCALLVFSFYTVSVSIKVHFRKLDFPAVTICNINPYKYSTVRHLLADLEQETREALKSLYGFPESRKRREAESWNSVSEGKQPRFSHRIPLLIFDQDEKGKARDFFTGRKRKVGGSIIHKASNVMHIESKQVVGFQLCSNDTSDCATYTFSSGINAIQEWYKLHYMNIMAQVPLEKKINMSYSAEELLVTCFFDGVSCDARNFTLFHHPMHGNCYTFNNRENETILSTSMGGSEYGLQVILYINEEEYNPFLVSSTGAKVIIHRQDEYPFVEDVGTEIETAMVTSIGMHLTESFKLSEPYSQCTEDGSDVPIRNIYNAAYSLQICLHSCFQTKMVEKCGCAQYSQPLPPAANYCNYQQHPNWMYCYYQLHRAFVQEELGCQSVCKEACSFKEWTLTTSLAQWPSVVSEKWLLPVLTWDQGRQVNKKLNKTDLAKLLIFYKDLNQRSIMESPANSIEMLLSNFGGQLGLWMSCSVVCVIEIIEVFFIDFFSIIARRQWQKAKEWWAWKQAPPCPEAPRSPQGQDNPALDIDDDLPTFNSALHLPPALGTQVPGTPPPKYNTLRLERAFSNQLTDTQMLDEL
# Chain of ASIC1a subunit (acid-sensing ion channel 1a) (human (endogenous in A549)) (P78348 whole entry): as the sequence (P78348 whole entry, chain 1 of 3) above
binder,measurement,setting,value
B1,"inhibition of currents evoked by a pH drop from 7.4 to 5.0 in X. laevis oocytes expressing homomeric hASIC1a (two-electrode voltage clamp, mambalgin-2 0–10 μM, 15 s pre-incubation), IC50",[1],0.59 μM
same,"inhibition of currents evoked by a pH drop from 7.4 to 5.0 in X. laevis oocytes expressing hASIC1a/α-ENAC/γ-ENAC (two-electrode voltage clamp, mambalgin-2 0–10 μM, 15 s pre-incubation), IC50",[2],79 nM
